Laboratory results: patent US20220119517A1 (NANJING SANHOME PHARMACEUTICAL, published 2022)

Assays:
[1] = biological target: T1, human Claudin18.2 (CLDN18.2), full length, on cells (human); experiment: FACS on NUGC4 cells
T1 construct: also called CLDN18.2-FL; HEK293-CLDN18.2 cells
Procedure: (§1) The effect of the Fc-mutated humanized antibody on the binding to the target CLDN18.2 was identified by FACS. NUGC4 cells were digested using the gastric cancer cell digestion solution at 37° C. for 15 minutes; terminated by the complete culture medium, centrifuged at 1000 rpm for 5 minutes, the supernatant was discarded; the cells were resuspended with 2% fetal bovine serum-PBS diluent, the cells were adjusted to 1×10⁶ cells/ml, 100 μl of cell suspension was added to each well of the 96-well U-shaped-bottom plate; the antibody was diluted with 2% fetal bovine serum-PBS to final concentrations of 5 μg/ml, 1 μg/ml, 0.2 μg/ml, 0.04 μg/ml and 0.008 μg/ml, mixed with the cells in equal volume, incubated at 4° C. for 1 hour; centrifuged at 1000 rpm for 5 minutes, the supernatant was discarded; 200 μl of Cell Stain Buffer (Biolegend) was added to each well to wash twice, centrifuged at 1000 rpm for 5 minutes at each time and the supernatant was discarded; 100 μl of PE-anti human Fc antibody (Biolegend) was added, incubated at 4° C. for 1 hour; washed twice using Cell Stain Buffer (Biolegend), centrifuged at 1000 rpm for 5 minutes at each time and the supernatant was discarded. 300 μl of Cell Stain Buffer was added to resuspend the cells, detected with BD FACS Jazz flow analyzer.

[2] = biological target: T1, human Claudin18.2 (CLDN18.2), full …; experiment: cell-based or functional assay
[3] = biological target: T1, human Claudin18.2 (CLDN18.2), full …; experiment: cell-based or functional assay; remark: listed apart in the source
[4] = biological target: T1, human Claudin18.2 (CLDN18.2), full …; experiment: FACS on NUGC4 cells, positive rate
Procedure: as §1

fold increase of binding activity over IMAB362-similar-hG1 [1]: 15 fold | ADCC activity by luciferase labeling, EC50 [2]: 0.17 nM | ADCC activity by luciferase labeling, Top [2]: 100000 | EC50 [4]: 0.76 nM | Top (%) [4]: 92.4%
B1: Hu330-1-5M (antibody, human IgG1, kappa)
heavy: EVQLVESGGGLVQPGGSLRLSCAASGFGFSDYGMAWVRQAPGKGLEWVSFISNSAYSIYYADTVTGRFTISRDNAKNSLYLQMNSLRAEDTAVYYCARLGRGNSFAYWGQGTLVTVSSASTKGPSVFPLAPSSKSTSGGTAALGCLVKDYFPEPVTVSWNSGALTSGVHTFPAVLQSSGLYSLSSVVTVPSSSLGTQTYICNVNHKPSNTKVDKKVEPKSCDKTHTCPPCPAPELLGGPSVFLLPPKPKDTLMISRTPEVTCVVVDVSHEDPEVKFNWYVDGVEVHNAKTKPPEEQYNSTLRVVSILTVLHQDWLNGKEYKCKVSNKALPAPIEKTISKAKGQPREPQVYTLPPSRDELTKNQVSLTCLVKGFYPSDIAVEWESNGQPENNYKTTPLVLDSDGSFFLYSKLTVDKSRWQQGNVFSCSVMHEALHNHYTQKSLSLSPGK
light: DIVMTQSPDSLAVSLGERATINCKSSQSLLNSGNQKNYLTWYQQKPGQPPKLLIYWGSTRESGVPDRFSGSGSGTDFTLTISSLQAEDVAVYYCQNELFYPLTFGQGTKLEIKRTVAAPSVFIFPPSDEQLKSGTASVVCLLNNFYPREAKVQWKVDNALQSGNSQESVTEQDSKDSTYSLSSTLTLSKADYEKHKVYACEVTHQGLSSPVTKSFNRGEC
notes: also called Fc mutant of the humanized antibody; Fc-mutated humanized antibody
ADCC cytotoxicity by LDH method, PBMC effectors, EC50 [3]: 0.31 nM
